This is an account of results in patent US20150210761A1 (SAMSUNG ELECTRONICS, published 2015).

For experiment [1], the target named is T1, recombinant hAng-2 (C-His, R&D Systems) (human, UniProt O15123 19-496).
T1 construct: Bought protein; Captured on an anti-His antibody chip for SPR; also called human Ang2; not shown: C-terminal His tag
T1 sequence: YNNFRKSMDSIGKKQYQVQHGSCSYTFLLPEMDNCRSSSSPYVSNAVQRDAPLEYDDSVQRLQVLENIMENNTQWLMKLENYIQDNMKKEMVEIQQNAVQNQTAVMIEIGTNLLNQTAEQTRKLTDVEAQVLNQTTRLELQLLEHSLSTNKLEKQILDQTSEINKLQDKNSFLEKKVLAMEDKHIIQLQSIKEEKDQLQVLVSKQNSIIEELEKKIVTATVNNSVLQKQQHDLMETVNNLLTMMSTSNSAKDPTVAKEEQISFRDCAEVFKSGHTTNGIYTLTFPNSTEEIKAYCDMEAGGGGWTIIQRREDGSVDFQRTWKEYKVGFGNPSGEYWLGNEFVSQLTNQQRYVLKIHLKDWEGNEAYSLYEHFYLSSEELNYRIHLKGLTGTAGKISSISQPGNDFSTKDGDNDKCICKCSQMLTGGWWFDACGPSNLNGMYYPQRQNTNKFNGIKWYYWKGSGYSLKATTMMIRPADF
The experiment can be described thus: SPR, BIAcore T100; hAng-2 C-His captured on anti-His chip, antibody flowed. On the procedure: To more exactly measure the binding affinity of the anti-Ang2 antibodies to antigen Ang2, the binding affinity of the above antibodies to the antigen was measured by an surface plasmon resonance (SPR) method using BIAcore T100 (GE Healthcare). The SPR method uses refractive index change of light which passes a sensor chip according to the state of materials coated onto the sensor chip, and if an antigen or an antibody is flowed onto a chip coated with the antigen or antibody, it causes changes in refractive index due to their binding and Kd values are thus calculated from the measured values.
First, anti-His antibody was immobilized on a CM5 sensor chip (GE healthcare) up to 8,000 RU levels using a pH 5.0 acetate solution and an amine coupling kit (GE Healthcare). 6 μg/ml of a recombinant hAng-2 (C-His, R&D Systems) protein was flowed onto the chip to be captured at 100 to 200 RU levels.
In general terms: In SPR one partner is held on a chip, and binding of the other changes the refractive index at the surface.

For a further experiment, the target named is T2, FLAG-tagged hAng-2 (human, UniProt O15123 19-496).
T2 sequence: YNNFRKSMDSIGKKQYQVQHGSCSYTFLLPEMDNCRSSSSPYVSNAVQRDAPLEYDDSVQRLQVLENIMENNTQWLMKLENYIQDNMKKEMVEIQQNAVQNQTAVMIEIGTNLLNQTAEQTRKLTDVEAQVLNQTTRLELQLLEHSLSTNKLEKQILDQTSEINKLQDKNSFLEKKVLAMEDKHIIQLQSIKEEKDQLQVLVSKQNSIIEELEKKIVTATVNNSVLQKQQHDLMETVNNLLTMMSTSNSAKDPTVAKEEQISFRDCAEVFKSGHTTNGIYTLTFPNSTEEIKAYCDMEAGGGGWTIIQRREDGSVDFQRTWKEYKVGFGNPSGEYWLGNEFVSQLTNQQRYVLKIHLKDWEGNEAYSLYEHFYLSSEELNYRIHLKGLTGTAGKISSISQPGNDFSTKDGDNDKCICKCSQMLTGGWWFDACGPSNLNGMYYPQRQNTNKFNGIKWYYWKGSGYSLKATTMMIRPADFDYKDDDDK
The experiment can be described thus: Ang2:Tie2 competition ELISA; hTie2-Fc coated, 400 ng/ml FLAG-tagged hAng-2, anti-FLAG-HRP detection. The procedure:
More specifically, MaxiSorp™ flat-bottom plate (Nunc) of 96-well was coated with hTie2-Fc (R&D Systems) which is a protein bound with 4 μg/ml of Fc of human IgG1. After coating, the plate was washed five times with 0.05% (v/v) Tween-20-containing PBS (phosphate buffer saline) and then blocked with 1% (v/v) BSA (bovine serum albumin; Sigma)-containing PBS at a room temperature for 2 hour.
For Ang2:Tie2 competition ELISA, each anti-Ang2 antibody obtained in Example 2 was placed at various concentrations of 400 nM-0.001 nM into each well coated with the hTie-2/Fc fusion protein along with 1% (v/v) BSA and 400 ng/ml of a FLAG-tagged hAng-2 and then, the plate was allowed to react at a room temperature for 2 hours and washed five times with PBST. After that, a HRP-conjugated anti-FLAG antibody (Sigma) diluted in 1% (v/v) BSA-containing PBS at a ratio of 1:5,000 (v/v) was added in an amount of […] to each well to react at a room temperature for 1 hour and then, the plate was washed five times with PBST. Lastly, 100 μl of TMB substrate (Cell Signaling) was added to each well of the plate to induce color development for 3 min. and then, the reaction was ceased by the addition of 100 μl of Stop solution (Cell Signaling) and OD450 values were measured on a plate reader (Molecular Devices).

Experiment [2] has as its target T3, mouse Ang2 (Accession # NP-031452) (R&D Systems) (mouse, UniProt O35608 19-496).
T3 construct: Bought protein coated on the ELISA plate; also called mAng2
T3 sequence (looked up): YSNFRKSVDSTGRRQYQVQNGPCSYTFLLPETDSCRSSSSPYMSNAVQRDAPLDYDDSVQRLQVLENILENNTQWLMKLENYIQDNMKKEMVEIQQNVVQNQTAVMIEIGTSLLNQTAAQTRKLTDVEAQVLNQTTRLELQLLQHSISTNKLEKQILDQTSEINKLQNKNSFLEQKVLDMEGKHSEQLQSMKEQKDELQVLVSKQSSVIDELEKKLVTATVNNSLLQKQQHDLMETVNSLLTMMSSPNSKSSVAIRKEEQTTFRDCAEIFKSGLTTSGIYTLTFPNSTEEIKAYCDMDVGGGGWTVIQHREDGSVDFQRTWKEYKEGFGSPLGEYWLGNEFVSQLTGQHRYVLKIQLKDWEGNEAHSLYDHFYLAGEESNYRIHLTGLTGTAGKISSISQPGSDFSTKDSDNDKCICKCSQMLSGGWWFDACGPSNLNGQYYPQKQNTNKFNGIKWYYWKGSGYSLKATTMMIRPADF
The experiment can be described thus: ELISA on coated mouse Ang2; 50% binding concentration, which the filing calls Kd. On the procedure:
An ELISA was conducted to measure the binding affinity of the antibodies prepared in Example 2 to mouse Ang2(mAng2). MaxiSorp™ flat-bottom plate (Nunc) of 96-well was coated with 5-20 μg/ml of mouse Ang2 (Mouse Ang2; Accession # NP_{—}031452) (R&D Systems). Thereafter, the plate was washed five times with 0.05% (v/v) Tween-20-containing PBS (PBST) and then blocked with 1% (v/v) BSA (bovine serum albumin; Sigma)-containing PBS at a room temperature for 2 hour. Each of the anti-Ang2 antibodies was added to each well of the plate at various concentrations, and the plate was allowed to react at a room temperature for 2 hours.
Thereafter, the plate was washed five times with PBST. Then, a HRP-conjugated anti-mouse IgG antibody (Santacruz) diluted in 1% (v/v) BSA-containing PBS at a ratio of 1:1,000 (v/v) was added in an amount of 50 μl to each well to react at a room temperature for 1 hour and then, the plate was washed five times with PBST. Lastly, 100 μl of TMB substrate (Cell Signaling) was added to each well of the plate to induce color development for 3 min. and then, the reaction was ceased by the addition of 100 μl of Stop solution (Cell Signaling) and OD450 values were measured on a plate reader (Molecular Devices).
From the obtained results, 50% binding concentration (Kd) of the anti-Ang2 antibody to Ang2 protein is obtained, thereby measuring the binding intensity of each of the anti-Ang2 antibodies to Ang2.
(In general: In an ELISA, binding on a coated surface is turned into a signal by an enzyme label.)

In the next experiment the target is T4, hAng1 (human, UniProt Q15389 20-498, limits assumed).
T4 construct: Tested by the same SPR set-up as hAng2; the construct is not described; also called human Ang1
T4 sequence (looked up): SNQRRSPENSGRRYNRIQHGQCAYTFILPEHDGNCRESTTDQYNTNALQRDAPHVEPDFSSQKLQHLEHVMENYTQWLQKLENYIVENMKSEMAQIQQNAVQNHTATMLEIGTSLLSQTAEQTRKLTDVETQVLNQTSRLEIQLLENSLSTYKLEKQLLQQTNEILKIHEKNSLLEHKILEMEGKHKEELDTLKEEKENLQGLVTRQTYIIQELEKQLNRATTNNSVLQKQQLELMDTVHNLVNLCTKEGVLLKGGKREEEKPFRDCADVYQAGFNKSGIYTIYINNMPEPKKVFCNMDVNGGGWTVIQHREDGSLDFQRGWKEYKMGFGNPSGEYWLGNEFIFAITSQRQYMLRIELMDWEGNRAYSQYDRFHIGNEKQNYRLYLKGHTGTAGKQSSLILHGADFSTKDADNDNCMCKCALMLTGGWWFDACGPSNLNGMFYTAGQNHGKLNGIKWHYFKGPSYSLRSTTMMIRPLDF
The experiment can be described thus: SPR, BIAcore T100.

B1: SAIT-ANG2-AB-m1B6 (antibody, V domains shown)
VH: QIQLVQSGPELKKPGETVKISCKASGYTFTNYGMNWVKQAPGKGLKWMGWINTYTGEPTYADDFKGRFAFSLETSASTAYLQINNLKNEDTATYFCARDHDGYLMDYWGQGTSVTVSS
VL: DIQMTQTTSSLSASLGDRVTISCSTSQGISNYLNWYQQKPDGTVKLLIFYTSSLHSGVPSRFSGSGSGTDYSLTISNLEPEDIATYYCQQYSKLPYTFGGGTKLEIK
notes: also called hybridoma KCLRF-BP-00307
Turning to B1, the Kd in experiment [1] worked out at 2.3 nM; in experiment [2], 2.1 nM. The molecule also had an IC50 in the experiment with FLAG-tagged hAng-2 of 2.89 nM. The binding result with hAng1 is “no binding (tested: 100 nM (highest antibody concentration))”.

For orientation: Kd means the constant that tells how readily two partners part at equilibrium. As usually defined, the IC50 is the concentration that inhibits the measured activity by half. Read a low IC50 as inhibition by little substance.
